This passage reports entry of KSHV into rhesus fibroblasts after pre-incubation of the virus with EphA7-Fc (1 to 20 µg/ml; no block, decrease in nuclear accumulation of the RRV genome in HUVEC four hours post infection (real-time PCR) in the presence of 5 µg/ml EphB3-Fc and entry of KSHV into rhesus fibroblasts after pre-incubation of the virus with EphA1-Fc (1 to 20 µg/ml; no block results from paper PMC3656109.

The target of test [1] is KSHV gH (V5 epitope-tagged)/gL complex (Kaposi's sarcoma-associated herpesvirus (KSHV, HHV-8)) (UniProt F5HAK9).
In test [2] the target is RRV 26-95 gH (V5 epitope-tagged)/gL complex (rhesus monkey rhadinovirus (RRV) strain 26-95).

Chain of UniProt F5HAK9 (F5HAK9 whole entry, looked up, one chain of several): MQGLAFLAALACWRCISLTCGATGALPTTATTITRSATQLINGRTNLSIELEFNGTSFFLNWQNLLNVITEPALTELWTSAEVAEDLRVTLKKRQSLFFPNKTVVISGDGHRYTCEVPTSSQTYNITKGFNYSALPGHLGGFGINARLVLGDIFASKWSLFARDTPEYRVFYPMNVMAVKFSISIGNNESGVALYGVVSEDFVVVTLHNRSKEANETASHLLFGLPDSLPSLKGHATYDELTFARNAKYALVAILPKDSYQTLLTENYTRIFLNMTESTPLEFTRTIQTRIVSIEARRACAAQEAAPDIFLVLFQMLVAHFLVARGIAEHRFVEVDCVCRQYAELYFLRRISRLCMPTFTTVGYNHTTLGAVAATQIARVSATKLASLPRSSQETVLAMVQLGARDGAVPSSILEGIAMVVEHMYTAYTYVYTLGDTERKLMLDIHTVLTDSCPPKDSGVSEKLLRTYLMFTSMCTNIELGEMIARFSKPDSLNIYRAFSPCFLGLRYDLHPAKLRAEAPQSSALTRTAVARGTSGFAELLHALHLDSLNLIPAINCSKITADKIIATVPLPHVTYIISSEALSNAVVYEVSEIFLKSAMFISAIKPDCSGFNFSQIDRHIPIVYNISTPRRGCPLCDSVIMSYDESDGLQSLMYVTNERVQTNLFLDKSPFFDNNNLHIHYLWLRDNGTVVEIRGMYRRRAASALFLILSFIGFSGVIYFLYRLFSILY

Consider “EphA7-Fc (from UniProt Q15375 28-555) (Fc fusion)”, for which the entry of KSHV into rhesus fibroblasts after pre-incubation of the virus with EphA7-Fc (1 to 20 µg/ml; no block at 1 µg/ml, value at 20 µg/ml) in test [1] is -35%.

B1: EphB3-Fc (Fc fusion)
chain: GCRALEETLMDTKWVTSELAWTSHPESGWEEVSGYDEAMNPIRTYQVCNVRESSQNNWLRTGFIWRRDVQRVYVELKFTVRDCNSIPNIPGSCKETFNLFYYEADSDVASASSPFWMENPYVKVDTIAPDESFSRLDAGRVNTKVRSFGPLSKAGFYLAFQDQGACMSLISVRAFYKKCASTTAGFALFPETLTGAEPTSLVIAPGTCIPNAVEVSVPLKLYCNGDGEWMVPVGACTCATGHEPAAKESQCRPCPPGSYKAKQGEGPCLPCPPNSRTTSPAASICTCHNNFYRADSDSADSACTTVPSPPRGVISNVNETSLILEWSEPRDLGGRDDLLYNVICKKCHGAGGASACSRCDDNVEFVPRQLGLTERRVHISHLLAHTRYTFEVQAVNGVSGKSPLPPRYAAVNITTNQAAPSEVPTLRLHSSSGSSLTLSWAPPERPNGVILDYEMKYFEKSEGIASTVTSQMNSVQLDGLRPDARYVVQVRARTVAGYGQYSRPAEFETTSERGSGAQQLQEQLPL
Take B1: the decrease in nuclear accumulation of the RRV genome in HUVEC four hours post infection (real-time PCR) in the presence of 5 µg/ml EphB3-Fc in test [2] came to 74%.

B2: EphA1-Fc (Fc fusion)
chain: KEVTLMDTSKAQGELGWLLDPPKDGWSEQQQILNGTPLYMYQDCPMQGRRDTDHWLRSNWIYRGEEASRVHVELQFTVRDCKSFPGGAGPLGCKETFNLLYMESDQDVGIQLRRPLFQKVTTVAADQSFTIRDLVSGSVKLNVERCSLGRLTRRGLYLAFHNPGACVALVSVRVFYQRCPETLNGLAQFPDTLPGPAGLVEVAGTCLPHARASPRPSGAPRMHCSPDGEWLVPVGRCHCEPGYEEGGSGEACVACPSGSYRMDMDTPHCLTCPQQSTAESEGATICTCESGHYRAPGEGPQVACTGPPSAPRNLSFSASGTQLSLRWEPPADTGGRQDVRYSVRCSQCQGTAQDGGPCQPCGVGVHFSPGARGLTTPAVHVNGLEPYANYTFNVEAQNGVSGLGSSGHASTSVSISMGHAESLSGLSLRLVKKEPRQLELTWAGSRPRSPGANLTYELHVLNQDEERYQMVLEPRVLLTELQPDTTYIVRVRMLTPLGPGPFSPDHEFRTSPPVSRGLTGGE
For B2, the entry of KSHV into rhesus fibroblasts after pre-incubation of the virus with EphA1-Fc (1 to 20 µg/ml; no block at 1 µg/ml, value at 20 µg/ml) in test [1] was -22%.
